This is an account of results in the nanobody polyreactivity screen of Harvey et al. (2022).

This data set can be described thus: yeast display, Sf9 membrane polyspecificity reagent, FACS + sequencing; frameworks hold sequencing errors. A digest of the protocol: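 A synthetic nanobody library was expressed on Saccharomyces cerevisiae BJ5465 by galactose induction for 36–48 hours. The library was stained for 1 hour at 4 °C with 10% biotinylated, detergent-solubilized Sf9 membrane reagent and enriched with streptavidin microbeads before FACS. Low and high (top ~1%) gates were set on anti-HA fluorescence for expression and streptavidin fluorescence for reagent binding, and each polyreactivity label reflects the gate of origin.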
With “QVQLVESGGGLVQAGGSLRLRCAASGITFRYYAMGWYRQAPGQERELVAAITRSGSTTYADSVKGRFTISRDNAKNTVYLQLNSLKPEDTAVYYCAVDYYYLTGGVDYWGQGTQVTVSS”, the “polyreactivity (PSR sort gate)” value was “low polyreactivity”.
The entry for “QVQLVESGGGLVQAGGSLRLRCAASGITLVDYAMGWNRQAPGKERELVAAITTGGSTNYADSVKGRFTISRDNAKNTVYLQINSLKPEDTAVYYCNKRAVILYDYWGQGTQVTVSS” is “low polyreactivity”; for “QVQLVESGGGLVQAGGSLRLRCAASGLIFPYNAMGWYRQAPGKERELVAAIDTRGSSTYYADSVKGRFTISRDNAKNTVYLQMNSLKPEDSAVYYCNARTGRSPTGFRYWGQGTEVTVSS” it is “high polyreactivity”.
For the sequence “QVQLVESGGGLVQAGGSLRLRCAASGRIFGLYAMGWYRQAPGKERQLVAAISRGGGSTYYADSVKGRFTISRDNAKNTVYLQMNSLNPEDTEVYYCATGLGYFSRLDYCGQGTQVTVSS”, the “polyreactivity (PSR sort gate)” value is “low polyreactivity”.
The entry for “QVQLVESGGGLVQAGGSLRLRCAASGRIFGRNAMGWYRQAPGKERELVATISSGDTTDYADSVKGRFTISRDNAKNTVYLQMNSLKPEDTAVYYITIYNYWGQGTQVTVSS” is “low polyreactivity”.
The value for “QVQLVESGGGLVQAGGSLRLRCAASGRIFRIYPMGWYRQAPGKERELVARITYSGGSTYYADSVKGRFTISRDNAKNTVYLQMNSLKPEDTAVYYCAADWLGYQYGYWGQGTQVTVSS” was “low polyreactivity”; that for “QVQLVESGGGLVQAGGSLRLRCAASGRTFLPYAMGWSRQAPGKVRVLVAAIDSSGTSTYYADSVKGRFTISRDNAKNTVYLQMNSLKPEDTAVYYCAKAWPDHWYSRYDYWGQGTQVTVSS” was “low polyreactivity”.
The entry for “QVQLVESGGGLVQAGGSLRLRCAASGRTFSSNAMGWYRQAPGKERELVASISRRGGSTYYADSVKGRFTISRDNAKNSVYVQMNSLKPEDTAVYDCAARQSGQILGYYSRYDYWGQGTQVTVSS” is “high polyreactivity”.
On to “QVQLVESGGGLVQAGGSLRLRCAASGRTFTAYTMGLYRQAPGKEREFVASISSGVTYADSVKGRFTISRDNAKITVYLQMNSLKPEDTAVYYCAARLWYVQGYVPYVHHRFDYWGQGTQVTVSS”, for which the “polyreactivity (PSR sort gate)” value is listed as “low polyreactivity”.
The value for “QVQLVESGGGLVQAGGSLRLRCAASGSIFARNAMGWYRQAPGKERELVASITWSGASTFYADSVKGRFTISRDNAKYTVYLQMNSLKPDVTAVYYCAATDQKLSLDYSSYEYWGQGSQVTVSS” was “low polyreactivity”.
The value for “QVQLVESGGGLVQAGGSLRLRCAASGSIFIRYAMGWYRQAPGKERELVAVISGRGVRTNYADSVKGRFTIARDTAKNPVYLQMNSLKPEDTAVYYCAVRYYGKQLGPGVRYTYNYLGQGTQVTVSS” was “high polyreactivity”.
The entry for “QVQLVESGGGLVQAGGSLRLRCAASGSIFWPYAMGWYRQAPGKERELVAGISSGGSTYYADSVKGRFTISRDNAKNTDYLQMNSLKPEDTAVYYCAARWQWLNGYYYWGQGSQVTVSS” is “high polyreactivity”; for “QVQLVESGGGLVQAGGSLRLRCAASGSIFYRNAMGWYRQAPGTERELVAAISSDGSTNYADSVKGRFSISRDNAKNTVYLQMNSLKPEDTAVYYCNADYVQQVAKYQYGYEYGYWGQGTQVTVSS” it is “low polyreactivity”; for “QVQLVESGGGLVQAGGSLRLRCAASGSTFEMYAMGWYRQEPGKERELVAAITWDTDSTYYADSVKGRFTISRDNAKNTVYLQMNSLKPEDTAVYYCNSQSGRASHYRGYGFDYWGQGTQVTVSS” it is “high polyreactivity”.
Regarding “QVQLVESGGGLVQAGGSLRLRCAASGSTFGRNTMGWYRQAPGKERELVAAISKSGGYTRYADSVKGRFTISRDNAKNTVYLQMNSLKPEDTAVYYCAARVYSLGYGGDYWGQGTQVTVSS”, the “polyreactivity (PSR sort gate)” value is reported as “high polyreactivity”.
The value for “QVQLVESGGGLVQAGGSLRLRCAASGSTFSEYAMGWYRQAPGKERELVAAISYNGGSTYYADSVKGRFTISRDNAKNTVYLQMNSLKPEDTAVYYCNAKLFYDRYDYWGQGTQVTVSS” was “low polyreactivity”; that for “QVQLVESGGGLVQAGGSLRLRCAASGSTFTYNTMGWYRQAPGKERELVAAINTTGNTYADSVKGRFTISRDNAKNTVYLQMNSLKPEDTAVYYCNTDYVPRRHDMDYWGQGTQVTLSS” was “low polyreactivity”; that for “QVQLVESGGGLVQAGGSLRLRCAASGSTFVRYAMGWYREAAGKEMELVAAISSRGGSTYYADSVKGRFTISRDNAKNTVYLQMNSLKPEDTAVYYCNAAAFINFMLYDYWGQGTQVTVSS” was “high polyreactivity”.
The entry for “QVQLVESGGGLVQAGGSLRLRCAASGSTFYIYAMGWYRPAPGKERELVARISGSGGSTYYADSVKGRFTISRDNAKNTVYLQMNSLKPEDTSVYSCAAQRRVVGRHGLSLIRYDYWGQGTQVTVSS” is “low polyreactivity”.
The value for “QVQLVESGGGLVQAGGSLRLRCAASGSTSWSNPMGWYRQAPGKERELVAAITTGASTYYADSVKGRFTISRDNAKNTVYLQMNSLKPEDTAVYYCAADPWVLWSYYYWGQGTQVTVSS” was “low polyreactivity”; that for “QVQLVESGGGLVQAGGSLRLRCAASGTFYLYAMGWYRQAPWKQRELVAAISGSGSTNYADSVKGRFTISRDNAKNTVYLQMNSLKPEDTAVYYCAAYQRYDSLTGARYEYDYWGQGTQVTVSS” was “low polyreactivity”; that for “QVQLVESGGGLVQAGGSLRLRCAASGYTFKHYTMGWYREAPGKERELVAAISRRGGRTYYADSVKGRFTISRDNAKNTVYLQMNSLKPEDTAVYYCNRVPRARKGDYWGQGTQVTVSS” was “high polyreactivity”.
With “QVQLVESGGGLVQAGGSLRLRCAASGYTLTPYTMGWYRQAPGKERELVAAINRSGGSTYYADSVKGRFTISRDNAKNTVYLQMNSLKPEDTAVYYCAAYGYYNFGYYYWGQGTQVTVSS”, the “polyreactivity (PSR sort gate)” value is “high polyreactivity”.
The entry for “QVQLVESGGGLVQAGGSLRLRCAASRRTLGVYALGWYRQAPGKERELVATITAGGSITSYADSVKGRFTISRDNAKNTVYLQMNTLKPEDTAVYYCAAEQGCSVLYDSWGQGTQVTVSS” is “low polyreactivity”.
The entry for “QVQLVESGGGLVQAGGSLRLRCAASVRIFRVYAMGRYSQAPGKERELVAAISSSGGSTYYADSVKGRFTMSRDNAKNTDYLQMNSLKPEDTAVYYCAAGGLHTIQRPGYYYWGQGTQVTVSS” is “low polyreactivity”.
For “QVQLVESGGGLVQAGGSLRLRCAPSGFIFIFNAMGWYRQAPGKERELVAAIDTSDDSTYYADSVKGRFTISRDNAKNTVYLQMNSLKPEDTAVYYCAAEELSNYEYWGQGTQVTVSS”, the “polyreactivity (PSR sort gate)” value is “low polyreactivity”.
The entry for “QVQLVESGGGLVQAGGSLRLRCASSGGIFYLNAMGWYRQAPGKERELVAAITGTGGNTYYADSVKGRFTISRDNAKNTVYLQMNSLKPEDTGVYYCNVSSRRLRGLDYWGQGTQVSVSS” is “low polyreactivity”; for “QVQLVESGGGLVQAGGSLRLRCASSGRNFVPYAMGGDRQAPGTEREFVAAISRSGGSTHYADSVKGRFTISRDNAKNTVYLQMNSLKPEDTAVYYCAADYDLWLWSGYYWGQGTQVTVSS” it is “high polyreactivity”.
Turning to “QVQLVESGGGLVQAGGSLRLRCASSGYIFTYYAMGWYRQAPGKERELVAAISWSGGRTYYADSVKGRFTISRDNAKITVYLQMNSLKPEDTAVYYCNAVDKRYPDMDYWGQGTQVTVSS”, the “polyreactivity (PSR sort gate)” value is reported as “high polyreactivity”.
The entry for “QVQLVESGGGLVQAGGSLRLRCGASGRTFSSNAMGWYRQAPGKERELVAVITRRGGSTYYADSVKGLFTISRDNAMNNVYLQMNSLKPEDTAVYYCATVAPPQRSGRRSAGEKYYYWGQGTQVTVSS” is “high polyreactivity”.
The entry for “QVQLVESGGGLVQAGGSLRLRCSASGSTIKDYTMGLYRQAPGKERELVAAITDSGGSTYYADSVKGRFTISRDNAKNTVYLQMNSLTPEDTAVYFCAAAVPELYEVRYHDDYWGQGTQVTVSS” is “low polyreactivity”; for “QVQLVESGGGLVQAGGSLRLRGAASGSIFSSNAKGWCRPAPGKERELVAAICRSGGDTYYADSVKGRFTISRDNAKNTVYLQMNSLKPVDTAVYYCAARNSYGGPTYEHYYWGQGTQVSVSS” it is “high polyreactivity”.
The value for “QVQLVESGGGLVQAGGSLRLRSAASGIILGKYAMGWYRQAPGKERELVAAISGRGGRTYYADSVKGRFTISRDNAKNTVYLQMNSLKQEDTAVYYWWGQGTQVTVSS” was “low polyreactivity”; that for “QVQLVESGGGLVQAGGSLRLRSAASGYTFSIYAMGRYRQATGKERELVASISWSAGNTYYADYVKGRFTFSLDNAKNTVYLQMNSLKPEDTAVYYCAVPRRLIWYRPSSYDYWGQGTQVTVSS” was “low polyreactivity”.
In the case of “QVQLVESGGGLVQAGGSLRLSCAAAGIIFILYTMGWYRKAPGKERELVATISSGGGSTFYADSVKGRFTISRDNAKNTVYLQMHRLKPEDTAVYYCAAFPVFGYSYDYWGQGTQVTVSS”, the “polyreactivity (PSR sort gate)” value is reported as “low polyreactivity”.
The value for “QVQLVESGGGLVQAGGSLRLSCAAAGLIFRFYAMGWYRQSPGKERELVAAISSRGGSRYYADSVKGRFTISRDNAKNTVYLQMNSLKPEDTAVYYCAAAVRKMAYPHYEYGYWGQGTQVTVSS” was “high polyreactivity”; that for “QVQLVESGGGLVQAGGSLRLSCAAAGLTFEWYTMGWYRQAPGKERELVADISGDGSTYYADSVKGRFTISRDNAKNTVYLQMNSLKPEDTAVYYCAASFWGFAMGYWGQGTQVTVSS” was “high polyreactivity”.
The value for “QVQLVESGGGLVQAGGSLRLSCAAAGRTFFKYAMGWYRQAPGKERELVATITSSGGITYADSVKGRFTISRDNAKNTVYLQMNRLKPEDTAVYYCNARVWVTHYSELNYWVQGTQVTVSS” was “low polyreactivity”; that for “QVQLVESGGGLVQAGGSLRLSCAAAGSIFSYYAMGWSRPEPGKEREFVATIRRSGASTYYADSVKGRFTISRDNAKNTGYLQMNSLKPEDTAVYYCNAASARRPIYEAARGSKYDYWGQRTQVTVSS” was “low polyreactivity”.
The entry for “QVQLVESGGGLVQAGGSLRLSCAAAGSIFYYNAMGWYRQAPGKERELVASIRAHGGNTYYADSVKGRFTISRDNAKNTVYLQMNSLKPEDTAVYYCAKESRYAHLYYYWGLGTQVTVSS” is “low polyreactivity”; for “QVQLVESGGGLVQAGGSLRLSCAACGFTFTIYAMGWYRQAPGKERELVATISGRAGRTYYADSVKGRFTISRDNAKNTVYLQMNSLKPEDTAVYYCTAGQWRYPGLYYYWGQGTQVTVSS” it is “high polyreactivity”.
